B1: P-selectin:immunoglobulin fusion protein (Fc fusion, UniProt P16109 42-321, looked up)
chain: WTYHYSTKAYSWNISRKYCQNRYTDLVAIQNKNEIDYLNKVLPYYSSYYWIGIRKNNKTWTWVGTKKALTNEAENWADNEPNNKRNNEDCVEIYIKSPSAPGKWNDEHCLKKKHALCYTASCQDMSCSKQGECLETIGNYTCSCYPGFYGPECEYVRECGELELPQHVLMNCSHPLGNFSFNSQCSFHCTDGYQVNGPSKLECLASGIWTNKPPQCLAAQCPPLKIPERGNMTCLHSAKAFQHQSSCSFSCEEGFALVGPEVVQCTASGVWTAPAPVCKA
notes: domain: lectin, EGF-related, and first two short consensus repeat related domains; Made in COS cells; captured from supernatant on wells coated with goat anti-human IgG Fc; also called soluble P-selectin; P-selectin Ig chimera; not shown: hinge, CH2, and CH3 domains of human IgG1

Test [1] deals with T1, PSGL-1 amino-terminal deletion beginning at precursor R38 (UniProt Q14242 38-412).
T1 construct: range 38-end (end not numbered), on cells; also called removal of the first 20 amino acids of the N-terminus of the mature PSGL-1
T1 sequence: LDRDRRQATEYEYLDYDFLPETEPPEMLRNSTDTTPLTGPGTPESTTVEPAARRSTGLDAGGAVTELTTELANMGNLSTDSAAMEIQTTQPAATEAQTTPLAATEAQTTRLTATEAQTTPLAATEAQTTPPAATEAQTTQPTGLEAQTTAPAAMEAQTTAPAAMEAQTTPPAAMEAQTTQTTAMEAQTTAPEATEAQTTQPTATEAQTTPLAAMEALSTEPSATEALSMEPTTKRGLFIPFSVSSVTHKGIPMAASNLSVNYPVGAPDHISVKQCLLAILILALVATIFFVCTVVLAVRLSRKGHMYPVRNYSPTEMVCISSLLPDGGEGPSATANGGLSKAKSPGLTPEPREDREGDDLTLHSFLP
Nature of the test: adhesion of 51Cr-labelled transfected COS cells to immobilized P-selectin:Ig.
Description: (§1) To assess the importance of these residues, the tyrosines were converted to phenylalanine (FIG. 9A). In a second peptide, the threonines were converted to alanines. In addition, a third peptide, containing a quintuple mutation, was prepared such that both conversions were made in a single peptide. […] Cells expressing the resulting chimeras were tested for their ability to bind to immobilized P-selectin (FIG. 9A). […] Expression of the flu tag or sLe^x epitope was not affected in these cells.

Test [2] has as its target T2, PSGL-1 amino-terminal deletion beginning at precursor E58 (UniProt Q14242 58-412).
T2 construct: range 58-end (end not numbered), on cells; also called removal of the first 40 amino acids of the N-terminus
T2 sequence: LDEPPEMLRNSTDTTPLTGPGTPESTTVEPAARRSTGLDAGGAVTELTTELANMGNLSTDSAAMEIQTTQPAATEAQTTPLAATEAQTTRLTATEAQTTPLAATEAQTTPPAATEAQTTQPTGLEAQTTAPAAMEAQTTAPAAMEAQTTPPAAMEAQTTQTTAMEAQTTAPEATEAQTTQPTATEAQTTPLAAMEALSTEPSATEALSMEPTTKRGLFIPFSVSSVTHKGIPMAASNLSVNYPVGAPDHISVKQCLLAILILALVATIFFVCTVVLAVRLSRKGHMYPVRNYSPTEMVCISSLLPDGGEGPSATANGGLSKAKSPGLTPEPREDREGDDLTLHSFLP
The test is described as above.
Description: as §1

The target of test [3] is T3, PSGL-1 amino-terminal deletion beginning at precursor P78 (UniProt Q14242 78-412).
T3 construct: range 78-end (end not numbered), on cells; also called further deletion of PSGL
T3 sequence: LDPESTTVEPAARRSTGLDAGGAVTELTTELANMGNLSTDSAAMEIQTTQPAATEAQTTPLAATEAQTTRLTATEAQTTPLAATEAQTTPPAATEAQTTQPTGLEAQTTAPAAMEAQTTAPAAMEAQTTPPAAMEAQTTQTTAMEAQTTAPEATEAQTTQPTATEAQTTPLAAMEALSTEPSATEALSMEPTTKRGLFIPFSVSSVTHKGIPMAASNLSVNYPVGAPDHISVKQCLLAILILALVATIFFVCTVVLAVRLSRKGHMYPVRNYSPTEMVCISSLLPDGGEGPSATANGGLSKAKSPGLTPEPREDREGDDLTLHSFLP
The description is as above.
Description: as §1

Test [4] has as its target T4, PSGL-1 amino-terminal deletion beginning at precursor A98 (UniProt Q14242 98-412).
T4 construct: range 98-end (end not numbered), on cells; also called further deletion of PSGL
T4 sequence: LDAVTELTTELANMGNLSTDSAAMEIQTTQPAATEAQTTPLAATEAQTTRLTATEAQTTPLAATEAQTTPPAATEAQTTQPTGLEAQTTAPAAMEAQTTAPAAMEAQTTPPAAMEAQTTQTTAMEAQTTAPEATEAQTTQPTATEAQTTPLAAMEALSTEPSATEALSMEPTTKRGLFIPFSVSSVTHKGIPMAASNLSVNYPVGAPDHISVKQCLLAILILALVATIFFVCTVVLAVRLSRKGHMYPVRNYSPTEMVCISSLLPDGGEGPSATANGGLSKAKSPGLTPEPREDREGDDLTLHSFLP
The description is as above.
Description: as §1

For test [5], the target named is T5, PSGL-1 residues 38-57 with tyrosines converted to phenylalanine, on the truncated PSGL-1 lacking the apical … (UniProt Q14242 118-412).
T5 construct: domain: truncated PSGL-1 lacking the apical domain, on cells
T5 sequence: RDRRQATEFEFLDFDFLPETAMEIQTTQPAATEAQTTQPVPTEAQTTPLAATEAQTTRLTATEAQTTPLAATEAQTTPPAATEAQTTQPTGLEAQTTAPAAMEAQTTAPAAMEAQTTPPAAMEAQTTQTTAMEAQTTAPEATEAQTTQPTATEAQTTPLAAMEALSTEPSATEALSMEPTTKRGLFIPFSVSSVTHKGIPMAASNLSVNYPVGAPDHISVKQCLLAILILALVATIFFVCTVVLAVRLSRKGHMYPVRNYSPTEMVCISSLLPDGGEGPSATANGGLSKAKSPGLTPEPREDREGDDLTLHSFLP
The description is as above.
Description: as §1

Test [6] deals with T6, PSGL-1 deletion mutant lacking the amino terminal 100 residues (apical domain) (UniProt Q14242 118-412).
T6 construct: range 118-end (end not numbered), on cells; Cotransfected with FTVII; also called Xba1 (label inferred from the order of the endpoints)
T6 sequence: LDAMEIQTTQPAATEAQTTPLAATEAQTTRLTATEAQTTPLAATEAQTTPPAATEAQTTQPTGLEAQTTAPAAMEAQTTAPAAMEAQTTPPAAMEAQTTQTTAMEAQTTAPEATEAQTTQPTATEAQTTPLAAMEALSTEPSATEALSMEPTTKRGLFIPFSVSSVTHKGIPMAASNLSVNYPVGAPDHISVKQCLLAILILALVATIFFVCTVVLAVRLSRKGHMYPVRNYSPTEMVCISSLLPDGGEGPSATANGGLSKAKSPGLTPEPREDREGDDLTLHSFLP
The test is described as above.
Description: as §1

The target in test [7] is B1. The test can be described thus: static binding assay, transfected COS cells (with FTVIIh) on plastic coated with P-selectin Ig.
Description: The cells were then loaded with 100 µl ^51CrO_4 (1 mCi/ml; DuPont, Boston, Mass.) in 0.9% NaCl plus 100 ml medium by incubating them at 37° C. for 1 hour. Loaded cells were washed twice in PBS and resuspended in 0.2% BSA, 0.15 M NaCl, 3 mM CaCl_2. Variation in labeling rate (counts incorporated per cell) between cells prepared in parallel with the same batch of labeled chromate was typically minimal. […] After the plate was washed twice with PBS, additional protein-binding sites were blocked by an overnight incubation with 200 µl 3% BSA in PBS. The plate was washed with PBS four times and incubated with 200 µl of fusion protein supernatants for 2 hours. Following three PBS washes and one additional wash (in 0.2% BSA, 0.15 M NaCl, 3 mM CaCl_2), 2×10^5 cells/well (in 200 µl 0.2% BSA, 0.15 M NaCl, 3 mM CaCl_2) were added and allowed to bind for 15 minutes at room temperature while the plate rotated on a rotary platform (80 rpm). The plate was washed three times by filling the wells with 200 µl 0.15 M NaCl/3 mM CaCl_2 and then inverting the plate. Adherent cells were lysed by the addition of 200 µl 2% SDS, and labeled chromate was counted with a gamma ray spectrometer.
Test [8] addresses B1. Nature of the test: adhesion of 51Cr-labelled transfected COS cells to immobilized P-selectin:Ig.
Description: as §1

The source of these data is patent US7399847 (GENERAL HOSPITAL, dated 2008).

On to B1, for which the binding result was “binds” in test [1]; “no binding” in test [2]; “no binding” in test [3]; “no binding” in test [4]; “no binding” in test [5]; “no binding” in test [6].

B2: Factor VIII-CD43 synthetic P-selectin ligand (designed binder)
chain: TGDYYEDSYEDISITTNSPETSSRTSGAPVTTAASSLETSRGTSGPPLTMATVSLETSKGTSGPPVTMATDSLETSTGTTGPPVTMTTGSLEPSSGASGPQVSS
modifications: tyrosine sulfation site of Factor VIII; sLe^x (FTVIIh cotransfected)
notes: also called CD43-F8; not shown: flu hemagglutinin oligopeptide tag
For the molecule B2, in test [7], the binding result is “binds”.

B3: PSGL-1 residues 38-57 (wildtype) appended to the CD43 mucin core (ligand, not shown: small tags and cut ends)
chain: RDRRQATEYEYLDYDFLPETITTNSPETSSRTSGAPVTTAASSLETSRGTSGPPLTMATVSLETSKGTSGPPVTMATDSLETSTGTTGPPVTMTTGSLEPSSGASGPQVSS
modifications: as the filing concludes: sulfated tyrosines at 46, 48 and 51; sLe^x on threonines 44 and 57
notes: Cotransfected with FTVII
B3: in test [8], the binding result is listed as “binds”.

B4: PSGL-1 residues 38-57 with tyrosines converted to phenylalanine, on the CD43 repeat elements and transmembrane domain (ligand, not shown: small tags and cut ends)
chain: RDRRQATEFEFLDFDFLPETITTNSPETSSRTSGAPVTTAASSLETSRGTSGPPLTMATVSLETSKGTSGPPVTMATDSLETSTGTTGPPVTMTTGSLEPSSGASGPQVSS
Take B4: the binding result in test [8] is “no binding”.

B5: PSGL-1 residues 38-57 with threonines converted to alanines, on the CD43 repeat elements and transmembrane domain (ligand, not shown: small tags and cut ends)
chain: RDRRQAAEYEYLDYDFLPEAITTNSPETSSRTSGAPVTTAASSLETSRGTSGPPLTMATVSLETSKGTSGPPVTMATDSLETSTGTTGPPVTMTTGSLEPSSGASGPQVSS
As to B5, the binding result in test [8] is listed as “binds”.

B6: PSGL-1-NH2/CD43 rep. (ligand, not shown: small tags and cut ends)
chain: LQLWDTWADEAEKALGPLLARDRRQATEYEYLDYDFLPETEPPEMLRNSTDTTPLTGPGTPESTTVEPAARRSTGLDAGGAVTELTTELANMGNLSTDSAEFITTNSPETSSRTSGAPVTTAASSLETSRGTSGPPLTMATVSLETSKGTSGPPVTMATDSLETSTGTTGPPVTMTTGSLEPSSGASGPQVSS
notes: range mature amino terminus-117; Cotransfected with FTVIIh; also called PSGL-1-NH2/CD43 repeats; PSGL-1 apical domain on the CD43 repeat region
With B6, in test [8], the binding result was “binds”.
